Data reported in US20240218066A1, “USE OF ANTI-PD-1 ANTIBODY IN COMBINATION WITH FIRST-LINE CHEMOTHERAPY IN TREATMENT OF ADVANCED NON-SMALL CELL LUNG CANCER” (SHANGHAI JUNSHI BIOSCIENCES CO., LTD., priority 2021, published 2024).

How the values were obtained:
[1] = system: patients with untreated advanced NSCLC
Protocol: (§1) This is a randomized, double-blind, placebo-controlled, multicenter, phase III clinical study for assessing the efficacy and safety of toripalimab (JS001) or placebo in combination with first-line chemotherapy in patients with untreated advanced NSCLC and exploring the population with optimal biomarker prediction.
(§2) Toripalimab 240 mg/placebo was administered by intravenous infusion once every three weeks (Q3W) in cycles of 21 days, with treatment continued until the patients met the discontinuation criteria, i.e., recorded progressive disease, unacceptable AEs, investigator-assessed unsuitability for continued treatment, withdrawal of informed consent, 2 years of JS001 treatment, or other reasons as specified in the protocol.
(§3) The selection of cisplatin or carboplatin was at the discretion of the investigator.
(§4) Safety analysis set (SS): including all patients who received at least one dose of the study drug (JS001/placebo/chemotherapeutic agent).
(§5) Safety analysis was performed in SS and crossover treatment analysis sets, where safety data from the double-blind stage of the primary study and the crossover treatment stage were analyzed separately. Safety analyses include drug exposure, compliance, adverse events, laboratory examinations, vital signs, physical examinations, electrocardiogramaminations, ECOG scores, etc.
(§6) All safety analyses were based on the SS population (464 patients), including 308 patients in the test group and 156 patients in the control group. […] The primary safety analysis results based on the SS population in the double-blind stage of the primary study are as follows:

[2] = system: patients with untreated advanced NSCLC; experiment: Phase III clinical study, safety analysis (SS population); conditions: SS population, test group
Protocol: as §1, §2, §3, §4, §5, §6

Substance: JS001: humanized IgG4 anti-PD-1 mAb with light and heavy chain amino acid sequences SEQ ID NOs: 9 and 10
- SAE judged by the investigator to be related to JS001: infectious pneumonia [1]: 1.6%
- SAE judged by the investigator to be related to JS001: anemia [2]: 2.6%
- SAE judged by the investigator to be related to JS001: immune-mediated hepatitis [2]: 1.0%
- SAE judged by the investigator to be related to JS001: immune-mediated pneumonia [2]: 2.6%
- SAE judged by the investigator to be related to JS001: interstitial lung disease [2]: 1.3%
- SAE judged by the investigator to be related to JS001: leukopenia [2]: 1.0%
- SAE judged by the investigator to be related to JS001: liver function abnormality [2]: 1.3%
- SAE judged by the investigator to be related to JS001: neutropenia [2]: 1.9%
- SAE judged by the investigator to be related to JS001: pulmonary inflammation [2]: 1.0%
- SAE judged by the investigator to be related to JS001: thrombocytopenia [2]: 2.3%
